Test results: publication PMC5215794

How the values were obtained:
Test in all cases: cross-linking
[1] = target: VcINDY K316C (dimer interface cysteine mutant in the cysteine-free background) (Vibrio cholerae) (UniProt Q9KNE0)
[2] = target: VcINDY N90C (dimer interface cysteine mutant in the cysteine-free background) (Vibrio cholerae) (UniProt Q9KNE0)
[3] = target: VcINDY Q86C S95C (dimer interface cysteine mutant in the cysteine-free background) (Vibrio cholerae) (UniProt Q9KNE0)
[4] = target: VcINDY V68C S304C (dimer interface cysteine mutant in the cysteine-free background) (Vibrio cholerae) (UniProt Q9KNE0)

Substance: VcINDY K316C (dimer interface cysteine mutant in the cysteine-free background) (from UniProt Q9KNE0 14-462) (natural protein)
- stoichiometry N [1]: 2

Substance: VcINDY N90C (dimer interface cysteine mutant in the cysteine-free background) (from UniProt Q9KNE0 14-462) (natural protein)
- stoichiometry N [2]: 2

Substance: VcINDY Q86C S95C (dimer interface cysteine mutant in the cysteine-free background) (from UniProt Q9KNE0 14-462) (natural protein)
- stoichiometry N [3]: 2

Substance: VcINDY V68C S304C (dimer interface cysteine mutant in the cysteine-free background) (from UniProt Q9KNE0 14-462) (natural protein)
- stoichiometry N [4]: 2
